Laboratory results published in the supplement of paper PMC7125110.
± gives the standard error. For some of these results: Variants at the floor of the assay were thinned out.

B1: glmS ribozyme (parent)
chain: AUAAAAGCGCCAGAACUACAGAAAUGUAGUUGACGAGGAGGAGGUUUAUCGAAUUUUCGGCGGAUGCCUCCAAA

Tests used:
Conditions in all cases: with glucosamine-6-phosphate
glucosamine-6-phosphate [1] = variants of: B1; assay: kcat; higher = faster cleavage; RNA array
In short: (§1)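 Tiles bearing barcoded ribozyme variants, transcribed in situ by E. coli RNA polymerase on sequenced MiSeq chips, were imaged over ~14 h at 37 °C using a hybridised Cy3 probe. Glucosamine-6-phosphate was supplied at 40 μM to 10 mM in HEPES/KCl/Mg(OAc)2 buffer. kobs came from one- or two-exponential decay fits to normalised per-tile medians, and weighted Michaelis–Menten fits then provided kcat and KM.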

glucosamine-6-phosphate [2] = variants of: B1; assay: KM; higher = weaker cofactor use; RNA array
In short: as §1

glucosamine-6-phosphate [3] = variants of: B1; assay: self-cleavage kobs at 40 uM GlcN6P; higher = faster cleavage; RNA array
In short: as §1

glucosamine-6-phosphate [4] = variants of: B1; assay: self-cleavage kobs at 160 uM GlcN6P; higher = faster cleavage; RNA array
In short: as §1

glucosamine-6-phosphate [5] = variants of: B1; assay: self-cleavage kobs at 640 uM GlcN6P; higher = faster cleavage; RNA array
In short: as §1

glucosamine-6-phosphate [6] = variants of: B1; assay: self-cleavage kobs at 2500 uM GlcN6P; higher = faster cleavage; RNA array
In short: as §1

glucosamine-6-phosphate [7] = variants of: B1; assay: self-cleavage kobs at 10000 uM GlcN6P; higher = faster cleavage; RNA array
In short: as §1

Row | Variant | kcat (glucosamine-6-phosphate [1]) [s⁻¹] | KM (glucosamine-6-phosphate [2]) [µM] | self-cleavage kobs at 40 uM GlcN6P (glucosamine-6-phosphate [3]) [s⁻¹] | self-cleavage kobs at 160 uM GlcN6P (glucosamine-6-phosphate [4]) [s⁻¹] | self-cleavage kobs at 640 uM GlcN6P (glucosamine-6-phosphate [5]) [s⁻¹] | self-cleavage kobs at 2500 uM GlcN6P (glucosamine-6-phosphate [6]) [s⁻¹] | self-cleavage kobs at 10000 uM GlcN6P (glucosamine-6-phosphate [7]) [s⁻¹]
1 | U30G G40C | 0.000669 ± 0.0001 | 864 ± 240 | 3.69e-05 ± 1.2e-05 | 0.000103 ± 1.9e-05 | 0.000265 ± 3.4e-05 | 0.000619 ± 8.6e-05 | 0.000544 ± 0.0001
2 | G44U U57G | < 1e-05 |  | < 1e-05 | < 1e-05 |  | < 1e-05 | < 1e-05
3 | C16G G40C | 0.0003 ± 2.6e-05 | 1660 ± 360 |  |  | 8.17e-05 ± 2e-05 | 0.000212 ± 5.8e-05 | 0.000252 ± 3.6e-05
4 | U54G U57A | 0.000134 ± 2.6e-05 | 1540 ± 760 |  |  | 3.49e-05 ± 1.2e-05 | 0.000118 ± 3.3e-05 | 0.00011 ± 2.1e-05
5 | A14U U65A | 0.0015 ± 0.00017 | 4460 ± 760 |  | 4.54e-05 ± 1.3e-05 | 0.000203 ± 2.7e-05 | 0.000449 ± 0.00012 | 0.00105 ± 0.00012
6 | U65A C71G | 0.000477 ± 0.00013 | 1710 ± 720 |  | 4.31e-05 ± 1.1e-05 | 0.000124 ± 1.6e-05 | 0.000382 ± 9.3e-05 | 0.000383 ± 8.9e-05
7 | U45A A64G | 0.0186 ± 0.0054 | 600 ± 260 | 0.000998 ± 0.00025 | 0.00526 ± 0.0021 | 0.0143 ± 0.0033 |  | 0.015 ± 0.004
8 | G41U U56A C70A | 0.0279 ± 0.012 |  |  | 0.00226 ± 0.00043 | 0.0096 ± 0.0018 | 0.033 ± 0.0088 | 0.0192 ± 0.0059
9 | C8A G60A | < 1e-05 | 86.3 ± 25 |  | < 1e-05 |  |  | 
10 | A15C U47A | 0.00412 ± 0.0012 | 2080 ± 870 | 0.000116 ± 1.4e-05 | 0.000266 ± 5.3e-05 | 0.000773 ± 0.00011 | 0.00226 ± 0.00034 | 0.00367 ± 0.00044
11 | G41A C70U | 0.0433 ± 0.0066 | 1100 ± 210 | 0.00159 ± 0.00013 | 0.0046 ± 0.0007 | 0.0179 ± 0.0025 | 0.0385 ± 0.013 | 0.0374 ± 0.0057
12 | U47G U54A | 0.00987 ± 0.0039 |  | 0.000306 ± 4.7e-05 |  | 0.00157 ± 0.00052 | 0.00522 ± 0.0019 | 0.00946 ± 0.0015
13 | A53G C58A | 0.000622 ± 7.5e-05 | 2190 ± 460 |  | 5.7e-05 ± 1.3e-05 | 0.000129 ± 1.6e-05 | 0.00036 ± 4.4e-05 | 0.0005 ± 5.8e-05
